Measurements taken from PMC5880071, “Self-sustained enzymatic cascade for the production of 2,5-furandicarboxylic acid from 5-methoxymethylfurfural” (Biotechnology for Biofuels, 2018).

B1: AAO (aryl-alcohol oxidase) (Pleurotus eryngii) (protein)
chain: ADFDYVVVGAGNAGNVVAARLTEDPDVSVLVLEAGVSDENVLGAEAPLLAPGLVPNSIFDWNYTTTAQAGYNGRSIAYPRGRMLGGSSSVHYMVMMRGSTEDFDRYAAVTGDEGWNWDNIQQFVRKNEMVVPPADNHNTSGEFIPAVHGTNGSVSISLPGFPTPLDDRVLATTQEQSEEFFFNPDMGTGHPLGISWSIASVGNGQRSSSSTAYLRPAQSRPNLSVLINAQVTKLVNSGTTNGLPAFRCVEYAEQEGAPTTTVCAKKEVVLSAGSVGTPILLQLSGIGDENDLSSVGIDTIVNNPSVGRNLSDHLLLPAAFFVNSNQTFDNIFRDSSEFNVDLDQWTNTRTGPLTALIANHLAWLRLPSNSSIFQTFPDPAAGPNSAHWETIFSNQWFHPAIPRPDTGSFMSVTNALISPVARGDIKLATSNPFDKPLINPQYLSTEFDIFTMIQAVKSNLRFLSGQAWADFVIRPFDPRLRDPTDDAAIESYIRDNANTIFHPVGTASMSPRGASWGVVDPDLKVKGVDGLRIVDGSILPFAPNAHTQGPIYLVGKQGADLIKADQ

What was measured:
[1] = molecular target: T1, UPO (unspecific peroxygenase), PaDa-I variant (Cyclocybe aegerita, UniProt B9W4V6, V100A/L110F/V118I/I291V/F354L); assay: GC-MS product analysis (FFCA formed); type: biochemical; conditions: 1.5 mM MMFA, 5 µM UPO, 1.5 mM H2O2; ether cleavage
T1 construct: gene APO1
T1 sequence (B9W4V6 44-371 V100A/L110F/V118I/I291V/F354L): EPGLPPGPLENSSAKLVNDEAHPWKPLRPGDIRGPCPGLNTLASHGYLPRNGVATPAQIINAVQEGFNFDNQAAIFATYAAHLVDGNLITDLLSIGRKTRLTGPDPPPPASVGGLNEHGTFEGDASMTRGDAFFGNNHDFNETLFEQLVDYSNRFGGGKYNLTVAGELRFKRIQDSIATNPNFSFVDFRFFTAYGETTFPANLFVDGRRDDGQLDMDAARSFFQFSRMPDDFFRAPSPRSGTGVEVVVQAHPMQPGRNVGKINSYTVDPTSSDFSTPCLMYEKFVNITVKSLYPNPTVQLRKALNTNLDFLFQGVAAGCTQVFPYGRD

purified protein [2] = substrate: O=Cc1ccc(CO)o1; assay: purified protein; type: biochemical, Pleurotus eryngii; conditions: O2 co-substrate (air), sodium phosphate pH 7.0 (50 mM in Table 1, 100 mM in Methods), 25 °C
purified protein [3] = substrate: COCc1ccc(C=O)o1; assay: purified protein; type: biochemical, Pleurotus eryngii; conditions: O2 co-substrate (air), sodium phosphate pH 7.0 (50 mM in Table 1, 100 mM in Methods), 25 °C
purified protein [4] = substrate: O=Cc1ccc(C=O)o1; assay: purified protein; conditions: O2 co-substrate (air), sodium phosphate pH 7.0 (50 mM in Table 1, 100 mM in Methods), 25 °C

| Molecule | GC-MS product analysis (FFCA formed) [1] | Km (purified protein [2]) [mM] | kcat (purified protein [2]) [s⁻¹] | kcat/Km (purified protein [2]) [M⁻¹ s⁻¹] | Km (purified protein [3]) [mM] | kcat (purified protein [3]) [s⁻¹] | kcat/Km (purified protein [3]) [M⁻¹ s⁻¹] | Km (purified protein [4]) [mM] | kcat (purified protein [4]) [s⁻¹] | kcat/Km (purified protein [4]) [M⁻¹ s⁻¹] |
| --- | --- | --- | --- | --- | --- | --- | --- | --- | --- | --- |
| COCc1ccc(C(=O)O)o1 [MMFA, 5-(Methoxymethyl)-2-furancarboxylic acid] | UPO is indeed capable to cleave the ether bond of MMFA | – | – | – | – | – | – | – | – | – |
| B1 | – | 1.6 ± 0.2 | 0.335 ± 0.01 | 215 ± 20 | 60.8 ± 5.5 | 0.263 ± 0.01 | 5.83 ± 0.333 | 3.3 ± 0.2 | 0.523 | 157 |
